Target: host cell proteins
Assay: microtiter plate column chromatography, Bradford assay; fraction of injected protein bound

Substance: rProtein A Sepharose FF (from UniProt P38507 37-327)
- Bound: 0%
